Laboratory results from patent US12162892B2, “CD16a binding agents and uses thereof” (KLEO PHARMACEUTICALS, INC., priority 2018, dated 2024).
Where “and” joins values, the source holds several entries; their conditions need not be identical. Equal entries are not always repeated.

Tests used:
Assay in all cases: MATE ELISA, interaction with various receptors (Example 55)
Assay type in all cases: binding
Conditions in all cases: Table 11; three replicate values
CD32b = molecular target: T1, CD32b (Homo sapiens, UniProt P31994)
T1 sequence (P31994 43-310): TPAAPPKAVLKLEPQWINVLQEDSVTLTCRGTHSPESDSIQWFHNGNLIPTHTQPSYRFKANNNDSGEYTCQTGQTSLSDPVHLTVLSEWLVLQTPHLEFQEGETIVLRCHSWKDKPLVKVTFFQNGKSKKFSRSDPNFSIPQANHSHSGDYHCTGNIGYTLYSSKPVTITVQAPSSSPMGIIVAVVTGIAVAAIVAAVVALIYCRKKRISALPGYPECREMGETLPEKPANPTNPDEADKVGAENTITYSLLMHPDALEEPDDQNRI
Description: (§1) Coat ELISA plates (Costar 3922) using Neutravidin (Thermo 31000) at 5 μg/ml in PBS (100 μl/well) for 1 hour at 37° C. Plates were washed 4 times with PBST (PBS, 0.05% Tween 20-200 μl, 1 minute/wash) then blocked using 200 μl 5% bovine serum albumin (BSA, Heat Shock, Fraction V-American Bio AB01088-00100) in PBST for 2 hours at 25° C. with moderate shaking. BSA was removed and plates were washed. […] Protein was removed and plates were washed. MATE labeled antibodies diluted to 1 μg/ml in PBSTB (100 μl/well) were added and incubated for 1 hour at 25° C. with gentle shaking. Wash plates. HRP labeled Mouse Anti-Human IgG, F(ab′)2 (Jackson Immuno Research 209-035-097) diluted 1:2500 in PBSTB was added (100 μl/well) and incubated for 1 hour at 25° C. with gentle shaking. Wash plates. Substrate (Super Signal ELISA Pico Chemiluminescent Substrate-Thermo 37069) was added (100 μl/well) and plates were incubated for 5 minutes at 25° C. with gentle shaking. Luminescence was then measured on the Biotek Synergy H1 microplate reader.
(§2) In some embodiments, “stock” is antibody only, and “control” is an antibody that went through the same procedure except using DMSO only as opposed to a compound. When contacted with targeting moieties such as antibodies in the Examples, compounds, e.g., I-95, I-96, etc. can react through their reactive groups
(§3) [drawing 887] with reactive groups of targeting moieties (e.g., —NH2) to form conjugates by forming amide groups (—C(O)NH—).

CD16b = CD16b (Homo sapiens, UniProt O75015)
Description: as §1, §2, §3

CD32a-R167 = test system: CD32a-R167
Description: as §1, §2, §3

CD16a158F = CD16a158F (Homo sapiens, UniProt P08637)
Description: as §1, §2, §3

CD3ed = CD3ed (Homo sapiens, UniProt P04234+P07766)
Description: as §1, §2, §3

CD32a H167 = molecular target: T2, CD32a H167 (Homo sapiens, UniProt P12318)
T2 sequence (P12318 36-218 limits assumed): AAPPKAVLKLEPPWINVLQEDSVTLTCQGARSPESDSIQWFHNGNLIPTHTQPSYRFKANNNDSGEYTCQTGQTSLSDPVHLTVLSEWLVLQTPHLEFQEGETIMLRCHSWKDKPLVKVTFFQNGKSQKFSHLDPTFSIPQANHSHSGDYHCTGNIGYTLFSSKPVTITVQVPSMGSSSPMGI
Description: as §1, §2, §3

CD38 = CD38 (Homo sapiens, UniProt P28907)
Description: as §1, §2, §3

CD16a 158V = test system: CD16a 158V
Description: as §1, §2, §3

Sequence of CD3ed (P07766 23-126 limits assumed): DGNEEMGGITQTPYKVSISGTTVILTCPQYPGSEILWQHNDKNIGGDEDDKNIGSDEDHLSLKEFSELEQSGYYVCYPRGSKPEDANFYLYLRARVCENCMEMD
Sequence of CD3ed (P04234 22-105 limits assumed): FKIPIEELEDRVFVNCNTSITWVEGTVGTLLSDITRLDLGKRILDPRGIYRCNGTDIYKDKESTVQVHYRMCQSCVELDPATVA
Sequence of CD16a158F (P08637 17-208 limits assumed): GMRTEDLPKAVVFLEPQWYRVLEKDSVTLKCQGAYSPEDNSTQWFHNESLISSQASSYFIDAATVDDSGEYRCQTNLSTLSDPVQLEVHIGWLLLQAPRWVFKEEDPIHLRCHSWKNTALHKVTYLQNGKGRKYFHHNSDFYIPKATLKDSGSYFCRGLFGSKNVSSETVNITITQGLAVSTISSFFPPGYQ
Sequence of CD16b (O75015 17-200): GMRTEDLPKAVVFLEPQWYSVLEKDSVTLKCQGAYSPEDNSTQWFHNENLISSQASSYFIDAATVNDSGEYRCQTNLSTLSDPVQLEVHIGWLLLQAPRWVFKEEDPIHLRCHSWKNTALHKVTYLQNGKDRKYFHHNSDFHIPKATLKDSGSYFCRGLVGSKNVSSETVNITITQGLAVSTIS

Daratumumab Control: "'control' is an antibody that went through the same procedure except using DMSO only as opposed to a compound"
MATE ELISA Results CD32b (CD32b): 9479 and 9358 and 9228 | MATE ELISA Results CD16b (CD16b): 3125 and 3086 and 3079 | MATE ELISA Results CD32a R157 (CD32a-R167): 125444 and 122409 and 116704 | MATE ELISA Results CD16a 158F (CD16a158F): 82022 and 81780 and 84907 | MATE ELISA Results CD3ed (CD3ed): 219 and 257 and 505 | MATE ELISA Results CD32a H167 (CD32a H167): 485766 and 481839 and 470053 | MATE ELISA Results CD38 (CD38): 2893900 and 2774268 and 2739576 | MATE ELISA Results CD16a 158V (CD16a 158V): 1407940 and 1365053 and 1337882
